Experimental data taken from US20240360229A1.

Molecular target: human CCR8 (human) (UniProt P51685)
Experiment: cell-based or functional assay

human CCR8 (human), sequence (P51685 whole entry): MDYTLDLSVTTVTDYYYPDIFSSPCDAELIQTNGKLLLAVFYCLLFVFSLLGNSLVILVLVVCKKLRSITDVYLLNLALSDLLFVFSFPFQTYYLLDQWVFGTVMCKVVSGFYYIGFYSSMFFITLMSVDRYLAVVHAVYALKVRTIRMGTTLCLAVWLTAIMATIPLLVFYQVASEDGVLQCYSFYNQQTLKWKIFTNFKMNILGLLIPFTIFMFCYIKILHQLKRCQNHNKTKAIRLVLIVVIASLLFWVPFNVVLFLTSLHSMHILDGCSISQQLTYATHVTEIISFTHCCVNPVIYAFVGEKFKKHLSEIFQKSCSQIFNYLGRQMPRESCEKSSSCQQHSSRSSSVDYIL

B1: control antibody (BD, Cat. #433H) (antibody, from another filing, V domains shown)
VH: EVQLVETGGGLVQPKGSLRLSCAASGFPFNTFAMNWVRQAPGKGLEWLARIRSKSNNYATYYADSVKDRFTISRDDSRRMLYLLMNNVKFEDTAIYYCVRGKENNYGYAMDYWGQGTSVTVSS
VL: DIVMTQAAPSVPVTPGESVSISCRSSQSLLHSNGNTYLYWFLQRPGQSPQLLIYRMSNLASGVPDRFSGSGSGTAFTLRISRVEAEDVGVYYCMQHLEYPFTFGIGTKLELKR
Which IC50 of inhibition of CCL1-mediated activation of CCR8 (Ca2+ influx, FLIPR, CHO/hCCR8.Gna15 cells) does the source give for B1 here?
Its IC50 of inhibition of CCL1-mediated activation of CCR8 (Ca2+ influx, FLIPR, CHO/hCCR8.Gna15 cells) is 8.4 nM.
